Data set [1] in a line: Oxidative reactions of various compounds (substrate preference, overall kinetics, pH range). Format: biochemical. The note with it: order of oxidized substrates. The procedure:
(§1) Laccase activity was determined spectrophotometrically in a thermostated spectrophotometer (Perkin-Elmer) at 40° C. in 100 mM sodium citrate buffer, pH 4.5 (1 ml). The standard assay was performed at 530 nm, using SGZ as the oxidation substrate (ε530=64,000 M^−1cm^−1). The reaction was started by adding SGZ, from a stock solution in methanol, to a final concentration of 20 μM. […] Oxidation of phenol red (75 μM) was determined by the decrease in absorbance at 432 nm. The activity:pH and activity:temperature relationships were determined by incubating the enzyme:substrate mixtures at different pH values and constant temperature (40° C.), and at different temperatures (15-80° C.) and constant pH (4.5), respectively. Catalytic constants were derived by fitting the experimental data onto the Michaelis-Menten model. Control measurements without enzyme were carried out to correct for possible chemical oxidation of the substrates.

Data set [2] is described as follows: Laccase activity, 1-HBT as substrate. Format: biochemical.
Data set [3] in a line: pH- and temperature-dependent activity and inactivation profiles. Format: biochemical. The procedure: FIG. 2A represents the effect of various pH values on the activity of recombinant purified RL5 laccase. The activity was measured at 40° C. using 1 mM SGZ (syringaldazine) or DMP as substrate. The buffers (100 mM) used were: citrate (pH 3.0-5.5), MES (pH 5.5-7.0), HEPES (pH 7.0-8.0), Tris-HCl (pH 8.0-9.0) and glycine-NaOH (pH 9.0-12). The activity of RL5 for DMP reached an optimum at a broad pH ranging from 3.5-9.0, being optimal at 4.0-5.0; however, it maintained more than 70% activity at pH 3.5 and 9.0 (FIG. 2A).
FIG. 2B represents the pH inactivation of purified RL5 laccase in sodium citrate pH 4.5 (indicated with “∘”) or glycine-NaOH pH 9.0 (indicated with “[…]”) over a time period of 240 min. 100% activity in the purified protein sample equals 7.2 units/mg (measured at 40° C.).
FIG. 2C represents the effect of the temperature on the activity of recombinant purified RL5 laccase. The enzyme activity was assayed at each indicated temperature in sodium citrate pH 4.5 in the presence of 1 mM SGZ or DMP. Activity was monitored at 420 nm. Protein activity increased as the temperature was raised to a maximum at ˜60° C. Therefore, RL5 is stable at high temperatures.
FIG. 2D represents the thermal inactivation of purified RL5 laccase. Purified enzyme was incubated in vials at 60° C. ([…]) or 65° C. (∘). At the indicated times, samples were withdrawn and tested for laccase activity at 40° C. by using SGZ or DMP as a substrate. 100% activity in the purified protein sample equals 17.2 units/mg.
Corresponding experiments were performed with BT4389 and YfiH under conditions as described above for FIGS. 2A to 2D (data not shown). The activity of these enzymes reached an optimum at a temperature of 52° C. (for BT4389) and 44° C. (for YfiH) and the thermal activity maintained for more than 80% at 55° C. (for BT4389) and at 50° C. (for YfiH). The activity of both enzymes reached an optimum at a pH range from 4.5 to 6.0 (for BT4389) and from 5.5 to 8.4 (for YfiH), although 80% activity maintained at pH 4.0 to 7.5 (for BT4389) and 5.0 to 9.0 (for YfiH).
as §1

A short description of data set [4]: Electrochemical analysis of immobilized laccase in absence of substrate. The note with it: for potential at which electro-reduction of oxygen begins: no substrate. An excerpt:
Electrochemical information on electrodes modified with RL5 laccase in absence of substrate was also obtained (FIGS. 3C,D). Again, we found some differences when the electrode material was gold or glassy carbon. Thus, the electro-reduction of oxygen begins in +250 mV when the electrode was gold (FIG. 3C), while it began at +500 mv when it was glassy carbon (FIG. 3D). We found additional information on the glassy carbon electrode compared with the gold electrode. Thus, when removing the oxygen from solution, the T1 copper site oxidization potential of 740 mV vs. NHE was registered. In addition, when a reactivation with oxygen was performed, the three oxidation potential peaks were registred: T1 of 745 mV vs. NHE was the highest; T3 site of 500 mV vs. NHE had two copper ions, so it is the one with a higher area; T2 site had 400 mV vs. NHE. The redox potential of T1 was registered to be in the range of fungal laccases (480-785 mV) (Solomon et al., 1996; Klonowska etal., 2002).
The electrochemical measurements have been performed with BAS CV-50W voltammetric analyzer. For gold surface experiments, a gold BAS disc electrode has been used. The electrode was cleaned according to the following procedure: the electrode was firstly immersed in “piranha” solution, containing 1 part of hydrogen peroxide 33% v and 3 parts of sulphuric acid 98%, during 5 minutes, after which the electrode was rinsed thoroughly with milliQ water, and polished with Buehler® micropolish gamma alumina #3, 0.05 micron size, during 5 minutes, on a polishing cloth, further immersed into a milliQ water solution and exposed to ultrasounds for 15 minutes. Then, the electrode was cleaned with sulphuric acid oxidization cyclic voltammetry for 30 minutes. The electrode was rinsed three times with milliQ water and polished again for another 5 minutes with the same alumina powder. After the subsequent sonication for 15 minutes, the electrode was finally inmersed into a reductive 0.5 M NaOH solution for 30 minutes and rinsed with milliQ water. The laccase enzyme was immobilized by dropping […] of the enzyme solution at a concentration of 5 mg/ml on the gold surface facing upward and covered to avoid evaporation. After 90 minutes, the second drop was added. After 180 minutes from the first addition, the laccase-modified gold electrode was measured in 100 mM phosphate buffer (pH 6.0) in the presence of oxygen. For measurements under anaerobic conditions, N2 was “bubbled” for 15 minutes into the electrochemical cell. The same procedure was repeated for measuring in presence of 2,6-dimethoxyphenol, used as a test substrate. The immobilization on the carbon electrode was performed on a BAS glassy carbon electrode. The electrode was polished on a graphite-polishing cloth for 5 minutes, until mirror-like surface was achieved. The electrode was rinsed thoroughly with water and, facing upwards, 20 μl of the laccase solution (5 mg/ml) were dropped on the classy carbon surface. The electrode was covered and let to immobilize for 20 minutes. All electrochemical measurements performed for the gold electrode are repeated for this electrode.

A short description of data set [5]: Laccase activity, violuric acid as substrate. Type of data set: biochemical.
Setting [6] is: glassy carbon, after reactivation with oxygen, vs. NHE.

B1: RL5: polypeptide with laccase activity from bovine rumen metagenome library, amino acid sequence of FIG. 11 (protein)
chain: MIELEKLDFAKSVEGVEAFSTTRGQVDGRNAYSGVNLCDYVGDDALRVLDARLTLAMQLGVDLDDLVMPRQTHSCRVAVIDERFRALDIDEQEAALEGVDALVTRLQGIVIGVNTADCVPIVLVDSQAGIVAVSHAGWRGTVGRIAKAVVEEMCRQGATVDRIQAAMGPSICQDCFEVGDEVVEAFKKAHFNLNDIVVRNPATGKAHIDLRAANRAVLVAAGVPAANIVESQHCSRCEHTSFFSARRLGINSGRTFTGIYRK
modifications: Description of sequence Amino acid sequence of RL5 laccase 3217 to 2414 frame 1 - 262 amino acids (see Figure 11)
B1: the substrate preference entry in data set [1] is “SGZ>DMP>veratryl alcohol>guaiacol>tetramethylbenzidine>4-metoxybenzyl alcohol>2ABTS>phenol red”. In data set [2], the “substrate of the laccase” value was “not substrates”. In addition, the “pH optimum of activity” value in data set [3] (40° C., 1 mM substrate, 100 mM buffers) is on record as 4.0-5.0 pH. In data set [3] (DMP, 40° C.), the “activity maintained at pH 3.5 and 9.0” value is reported as “more than 70%”; the “broad pH range of activity” value is on record as 3.5-9.0 pH. Moreover, in data set [3] (incubated at 60° C. or 65° C.), the thermal stability entry was “highly stable at this temperatures over a long time period, for at least four hours”. In data set [3] (pH inactivation experiment, measured at 40° C.), the “100% activity in the purified protein sample” value was found to be 7.2 units/mg. In addition, in data set [3] (sodium citrate pH 4.5, 1 mM SGZ or DMP), the “temperature optimum of activity” value is about 60 °C. The pH stability entry in data set [3] (sodium citrate pH 4.5 or glycine-NaOH pH 9.0, 240 min) is given as “highly stable over a long time period at these pHs”. Besides, the “100% activity in the purified protein sample” value in data set [3] (thermal inactivation experiment, tested at 40° C., SGZ or DMP) is 17.2 units/mg. For the same molecule, the “potential at which electro-reduction of oxygen begins” value in data set [4] (glassy carbon electrode) was “+500 mv”. Moreover, in data set [4] (setting [6]), the T1 oxidation potential is given as 745 mV, the “T2 site oxidation potential” value is given as 400 mV and the “T3 site oxidation potential” value is on record as 500 mV. In data set [4] (glassy carbon, oxygen removed from solution, vs. NHE), the “T1 copper site oxidization potential” value came out at 740 mV. The “potential at which electro-reduction of oxygen begins” value in data set [4] (gold electrode) is listed as “+250 mV”. In addition, in data set [5], the “substrate of the laccase” value is listed as “not substrates”.
